From US20180258175A1 (ABLEXIS, published 2018) come the findings set out here.

Sequences and labels used below:
B1: CCK-461A (antibody, V domains shown)
VH: QVQLQESGPGLVKPSETLSLTCTVSGGSISSYYWTWIRQPPGKGLEWIGYISYSGGTNYNPSLKSRVTISVDTSKNQFSLKLSSVTAADTAVYYCARELGNYWGQGTLVTVSS
VL: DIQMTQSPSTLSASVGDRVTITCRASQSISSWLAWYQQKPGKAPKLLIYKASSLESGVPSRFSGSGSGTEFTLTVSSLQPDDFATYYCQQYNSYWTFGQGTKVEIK
notes: AlivaMab chimeric IgG, human kappa LC
B2: CCK-468A (antibody, V domains shown)
VH: EVQLVESGGGLVQPGRSLRLSCTASGFTFGDYAMTWFRQAPGKGLEWVGFIRSKAYGGTTEYAASVKGRFTISRDDSKSIAYLQMNSLKTEDTAVYYCTREGSFGALDIWGQGTMVTVSS
VL: not shown
notes: as for B1
B3: 549 (Table 4, bin 1D block) (antibody, V domains shown)
VH: QVQFVESGGGVVQPGRSLRLSCAASGFTLSSYGMHWVRQAPGKGLEWVAVIWYDGSNEYYADSVKGRFTISRDNSKNTLYLQMNSLRAEDTAVYYCARDRAWGSGDWGQGTLVTVSS
VL: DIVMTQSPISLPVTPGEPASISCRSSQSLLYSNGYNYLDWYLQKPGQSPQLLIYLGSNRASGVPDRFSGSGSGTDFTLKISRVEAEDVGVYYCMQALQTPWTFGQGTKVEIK
notes: not tied
B4: 487 (Table 4, bin 3 block) (antibody, V domains shown)
VH: QVQLQESGPGLVKPSETLSLTCTVSGGSISSYYWSWIRQPAGKGLEWIGHIFSSGSTNYNPSLKSRVTMSVDTSKSQFSLKLSSVTAADTAVYLCARGGVTWFDPWGQGTLVTVSS
VL: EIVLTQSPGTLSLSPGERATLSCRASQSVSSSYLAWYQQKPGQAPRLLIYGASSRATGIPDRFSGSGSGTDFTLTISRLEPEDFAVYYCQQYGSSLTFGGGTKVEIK
notes: not tied
B5: CCK-514A (antibody, V domains shown)
VH: EVQLVESGGGLVKPGGSLRLSCAASGFTFSSYSMNWVRQAPGKGLEWVSSISSSSSYIYYADSVKGRFTISRDNAKNSLYLQMNSLRAEDTAVYYCARGGSYPYNWFDPWGQGTLVTVSS
VL: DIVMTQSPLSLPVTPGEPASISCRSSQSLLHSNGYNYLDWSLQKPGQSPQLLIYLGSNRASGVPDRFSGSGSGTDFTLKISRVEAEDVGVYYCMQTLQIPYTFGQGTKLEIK
notes: as for B1
B6: CCK-424A (antibody, V domains shown)
VH: QVQLQESGPGLVKPSETLSLTCTVSGGSISSYYWSWIRQPPGKVLEWIGYFSYNGNTNYNPSLKSRVTISVDTSKNQFSLKLSSVTAADTAVYYCTRGMDVWGQGTTVTVSS
VL: DIQMTQSPSTLSASVGDRVTITCRASQSISDWLAWYLQKPGKAPKLLIYKASSLESGVPSRFSGSGSGTAFTLTISSLQPDDFATYYCQQYNSHWTFGQGTKVEIK
notes: as for B1
B7: CCK-421A (antibody, V domains shown)
VH: QVQLQESGPGLVKPSETLSLTCTVTGGSISSYYWSWIRQPAGKGLEWIGRIYTSGSTNYNPSLKSRVTMSVDTSKNHFSLKLSSVTAADTAVYYCAREILVVVAATRTGGVFDIWGQGTMVTVSS
VL: B6 VL with D31S, L37Q, Q38R, S53T, A70E, Y91F, H94Y
notes: as for B1
B8: CCK-516A (antibody, V domains shown)
VH: not shown
VL: DIVMTQTPLSLPVTPGEPASISCRSSQSLLDSDDGNTYLDWYLQKPGQSPQLLIYTLSYRASGVPDRFSGSGSGTDFTLKISRVEAEDVGVYYCMQRIEFPLTFGGGTKVEIK
notes: as for B1
B9: 429 (Table 4, bin 1C block) (antibody, V domains shown)
VH: QVQLEQSGAEVKRPGASVKVSCKASGYTFTGYYMHWVRQAPGQGLEWMGWINPNRGDTNYAQKFQGRVTMTRDTSISTAYMELSRLRSDDTAVYYCARDLEGGGPFDYWGQGTLVTVSS
VL: B8 VL with L102S, G106Q, K109R, V110L
notes: not tied
B10: CCK-464A (antibody, V domains shown)
VH: EVQLVESGGGLVKPGGSLRLSCAASGFTFSSYNMNWVRQAPGKGLEWVSSISSSSTYIYYADSLKGRFTISRDNAMNSLYLQMSSLRAEDTAVYYCARDSGTYPYYYFGMDVWGQGTTVTVSS
VL: DIQLTQSPSFLSASVGDRVTITCRASQGISSYLAWYQQKPGKAPKLLIYAASTLQSGVPSRFSGSGSGTEFTLTISSLQPEDFATYYCQQLNTYPRTFGQGTKVEIK
notes: as for B1
B11: CCK-525A (antibody, V domains shown)
VH: QVQLVESGGGVVQPGRSLRLSCAASGFTFSSYGMHWVRQAPGKGLEWVAVIWYDGSIKYYADSVKGRFTISRDNSKNTLYLQMNSLRAEDTAVYYCARATYYYDSSGYYSNWFDPWGQGTLVTVSS
VL: DIQMTQSPSSVSASVGDRVTITCRASQGISSWLAWYQQKPGKAPKLLIYAASSLQSGVPSRFSGSGSGTDFTLTISSLQPEDFATYYCQQANTFPFTVGPGTKVDIK
notes: as for B1

Numbering of substitutions follows the chain as printed.
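Further: low signal means same epitope bin as the mouse competitor antibody.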

The target in the first test is T1, human CD115 extracellular domain (Sino Biological 10161-H08H) (human, UniProt P07333 20-517).
T1 construct: extracellular domain; bought recombinant protein; also called huCD115; hu-CD115
Briefly: competition ELISA, competitor TMR 100A.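 Further: clonal anti-huCD115 hybridoma supernatants tested for binding with the competitor antibody present, clones failing to bind are assigned to the competitor's epitope bin.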 For orientation: In an ELISA, binding on a coated surface is turned into a signal by an enzyme label.
Turning to B1, the “signal vs NO COMP=100” value turned out to be 110%.
In the case of B2, the “signal vs NO COMP=100” value was 95%.
Same read-out and setting: the same measure for B3: 100%.
On the same count and under the same terms, the same measure for B4: 103%; for B5: 103%; for B6: 98%.
Still for that read-out and setting: next, B7: 99%; B8: 87%.
As for B9, the “signal vs NO COMP=100” value is 107%.
Turning to B10, the “signal vs NO COMP=100” value turned out to be 96%.
For the molecule B11, the “signal vs NO COMP=100” value was 100%.

A further test concerns the target T1, human CD115 extracellular domain (Sino …). Briefly: competition ELISA, competitor TMR 20A.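 Further: epitope binning by ELISA, anti-huCD115 hybridoma supernatant antibodies tested for binding to huCD115 with the competitor antibody present, loss of binding placing them in the competitor's bin.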
In the case of B1, the “signal vs NO COMP=100” value came out at 110%.
On the same count and under the same terms, the same measure for B2: 53%; for B3: 59%.
Still for that read-out and setting: the same measure for B4: 97%; for B5: 84%; for B6: 98%.
Still for that read-out and setting: the same measure for B7: 104%; for B8: 70%; for B9: 84%.
Regarding B10, the “signal vs NO COMP=100” value stood at 87%.
Same read-out and setting: the same measure for B11: 80%.

A further test shares this target. Briefly: competition ELISA, competitor TMR 95A.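 Further: clonal anti-huCD115 hybridoma supernatants tested for binding while a competitor mouse antibody is present, where failure to bind assigns them to that competitor's epitope bin.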
For B1, the “signal vs NO COMP=100” value came to 15%.
Same read-out and setting: next, B2: 61%; B3: 1%.
On the same count and under the same terms, the same measure for B4: 84%; for B5: 42%.
As to B6, the “signal vs NO COMP=100” value came to 16%.
On the same count and under the same terms, next, B7: 9%.
On the same count and under the same terms, next, B8: 20%; B9: 38%.
The same measure, in the same setting: next, B10: 57%; B11: 11%.

For the next test the target is unchanged. Briefly: competition ELISA, competitor TMR 44B.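 Further: binding of antibodies from single-clone hybridoma supernatants to huCD115 measured with the competitor antibody present, a drop in signal meaning both share an epitope bin.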
Consider B1, for which the “signal vs NO COMP=100” value was 41%.
The same measure, in the same setting: the same measure for B2: 24%; for B3: 2%.
On the same count and under the same terms, next, B4: 94%; B5: 4%.
Same read-out and setting: next, B6: 53%; B7: 55%; B8: 10%.
As to B9, the “signal vs NO COMP=100” value worked out at 45%.
The same measure, in the same setting: the same measure for B10: 0%; for B11: 56%.

A further test has the same target. Briefly: competition ELISA, competitor TMR 24A.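 Further: clonal anti-huCD115 hybridoma supernatant antibodies bound with a competitor mouse antibody present, and failure to bind puts a clone in that competitor's epitope bin.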
For B1, the “signal vs NO COMP=100” value was 27%.
Same read-out and setting: the same measure for B2: 85%.
Still for that read-out and setting: next, B3: 111%.
For B4, the “signal vs NO COMP=100” value is 86%.
Same read-out and setting: the same measure for B5: 53%; for B6: 29%.
Take B7: the “signal vs NO COMP=100” value was 18%.
The same measure, in the same setting: the same measure for B8: 39%; for B9: 75%.
On the same count and under the same terms, the same measure for B10: 39%; for B11: 13%.

For another test the target is unchanged. Briefly: competition ELISA, competitor TMR 35A.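 Further: clonal hybridoma supernatant antibodies added to wells after the competitor mouse antibody, lost binding signal puts an antibody in that competitor's epitope bin.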
With B1, the “signal vs NO COMP=100” value was 110%.
Same read-out and setting: next, B2: 104%; B3: 89%.
In the case of B4, the “signal vs NO COMP=100” value came to 6%.
The same measure, in the same setting: the same measure for B5: 75%; for B6: 102%.
Same read-out and setting: the same measure for B7: 100%; for B8: 82%; for B9: 112%.
Still for that read-out and setting: next, B10: 85%.
On to B11, for which the “signal vs NO COMP=100” value was determined as 88%.
